Assay results: article doi:10.1101/2021.10.18.464838

Legend:
[1] = target: Hsp72 tracer FITC-Ahx-…; assay: fluorescence polarisation
[2] = target: DnaJB4 (recombinant, human, full length, wild type) (human) (UniProt Q9UDY4); assay: differential scanning fluorimetry
[3] = target: DnaJB4 (recombinant, human, full length, wild type) (human) (UniProt Q9UDY4); assay: fluorescence polarisation

**Q.** How did the Kd [1] turn out when “CHIP (recombinant human) (from UniProt Q9UNE7 1-303) (natural protein)” was run?
**A.** 1000 nM

**Q.** How did the Kd [1] turn out when “DnaJB4 QPD mutant (from UniProt Q9UDY4 1-337) (natural protein)” was run?
**A.** 2030 nM

**Q.** Which Tmapp of DnaJB4 with 100 µM peptide [2] does the source give for “Hsc70 C-terminal 10-mer peptide, unlabeled, N-acetylated” here?
**A.** 59 °C

**Q.** And the % tracer displacement [3]?
**A.** 67.6%
